B1: DVD445 (bispecific antibody, human IgG1, kappa)
heavy: not shown
light: DIVMTQSPDSLAVSLGERATISCRASESVDNYGISFMKWFQQKPGQPPKLLIYAASNQGSGVPDRFSGSGSGTDFTLTISSLQAEDVAVYYCQQSKEVPWTFGGGTKVEIKRTVAAPDIQMTQSPSSLSASVGDRVTITCRASQVIRRSLAWYQQKPGKAPKLLIYAASNLASGVPSRFSGSGSGTDFTLTISSLQPEDFATYYCQQSNTSPLTFGQGTKVEIKRTVAAPSVFIFPPSDEQLKSGTASVVCLLNNFYPREAKVQWKVDNALQSGNSQESVTEQDSKDSTYSLSSTLTLSKADYEKHKVYACEVTHQGLSSPVTKSFNRGEC
notes: DVD-Ig; N-term; AB069 (DLL4), C-term; AB071 (VEGF); HC linker short, LC linker short; also called DVD445H; DVD445L
B2: DVD457 (bispecific antibody, human IgG1, kappa, L234A L235A)
heavy: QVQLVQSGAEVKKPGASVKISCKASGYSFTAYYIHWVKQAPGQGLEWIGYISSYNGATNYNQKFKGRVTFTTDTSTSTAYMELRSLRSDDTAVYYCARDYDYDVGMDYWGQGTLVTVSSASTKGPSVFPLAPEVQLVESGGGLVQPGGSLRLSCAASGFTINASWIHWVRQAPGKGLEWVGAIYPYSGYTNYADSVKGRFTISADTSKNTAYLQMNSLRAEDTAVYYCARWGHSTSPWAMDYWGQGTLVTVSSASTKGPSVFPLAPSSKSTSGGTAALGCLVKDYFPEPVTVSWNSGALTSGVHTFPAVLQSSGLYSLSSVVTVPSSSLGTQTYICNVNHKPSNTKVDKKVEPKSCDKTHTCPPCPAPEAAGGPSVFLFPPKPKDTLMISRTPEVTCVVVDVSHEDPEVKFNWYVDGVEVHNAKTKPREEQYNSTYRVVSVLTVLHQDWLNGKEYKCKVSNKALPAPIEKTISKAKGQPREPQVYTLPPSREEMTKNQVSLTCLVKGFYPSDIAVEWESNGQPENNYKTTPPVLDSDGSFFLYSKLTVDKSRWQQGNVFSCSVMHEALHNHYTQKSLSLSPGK
light: B1 light
notes: DVD-Ig; N-term; AB069 (DLL4), C-term; AB071 (VEGF); HC linker long, LC linker short; also called DVD457H; DVD457L
B3: DVD494 (bispecific antibody, human IgG1, kappa)
heavy: not shown
light: DIQMTQSPSSLSASVGDRVTITCSASQDISNYLNWYQQKPGKAPKVLIYFTSSLHSGVPSRFSGSGSGTDFTLTISSLQPEDFATYYCQQYSTVPWTFGQGTKVEIKRTVAAPSVFIFPPDIQMTQSSSYLSVSLGGRVTITCKASDHINNWLAWYQQKPGNAPRLLISGATSLETGVPSRFSGSGSGKDYTLSITSLQTEDVATYYCQQYWSIPLTFGAGTKLELKRTVAAPSVFIFPPSDEQLKSGTASVVCLLNNFYPREAKVQWKVDNALQSGNSQESVTEQDSKDSTYSLSSTLTLSKADYEKHKVYACEVTHQGLSSPVTKSFNRGEC
notes: DVD-Ig; N-term; AB014 (VEGF), C-term; AB072 (DLL4); HC linker long, LC linker long; also called DVD494H; DVD494L
B4: DVD506 (bispecific antibody, human IgG1, kappa)
heavy: not shown
light: B3 light
notes: DVD-Ig; N-term; AB014 (VEGF), C-term; AB072 (DLL4); HC linker short, LC linker long; also called DVD506H; DVD506L
B5: DVD515 (bispecific antibody, human IgG1, kappa)
heavy: not shown
light: QAVVTQESALTTSPGETVTLTCRSSTGAVTTSNYANWVQEKPDHLFTGLIGGTNNRAPGVPARFSGSLIGDKAALTITGAQTEDEAIYFCALWYSNHWVFGGGTKLTVLGQPKAAPDIQMTQSPSSLSASVGDRVTITCRASQVIRRSLAWYQQKPGKAPKLLIYAASNLASGVPSRFSGSGSGTDFTLTISSLQPEDFATYYCQQSNTSPLTFGQGTKVEIKRTVAAPSVFIFPPSDEQLKSGTASVVCLLNNFYPREAKVQWKVDNALQSGNSQESVTEQDSKDSTYSLSSTLTLSKADYEKHKVYACEVTHQGLSSPVTKSFNRGEC
notes: DVD-Ig; N-term; AB073 (DLL4), C-term; AB071 (VEGF); HC linker short, LC linker short; also called DVD515H; DVD515L
B6: DVD527 (bispecific antibody, human IgG1, kappa)
heavy: not shown
light: B5 light
notes: DVD-Ig; N-term; AB073 (DLL4), C-term; AB071 (VEGF); HC linker long, LC linker short; also called DVD527H; DVD527L
B7: DVD521 (bispecific antibody, human IgG1, kappa, lambda, L234A L235A)
heavy: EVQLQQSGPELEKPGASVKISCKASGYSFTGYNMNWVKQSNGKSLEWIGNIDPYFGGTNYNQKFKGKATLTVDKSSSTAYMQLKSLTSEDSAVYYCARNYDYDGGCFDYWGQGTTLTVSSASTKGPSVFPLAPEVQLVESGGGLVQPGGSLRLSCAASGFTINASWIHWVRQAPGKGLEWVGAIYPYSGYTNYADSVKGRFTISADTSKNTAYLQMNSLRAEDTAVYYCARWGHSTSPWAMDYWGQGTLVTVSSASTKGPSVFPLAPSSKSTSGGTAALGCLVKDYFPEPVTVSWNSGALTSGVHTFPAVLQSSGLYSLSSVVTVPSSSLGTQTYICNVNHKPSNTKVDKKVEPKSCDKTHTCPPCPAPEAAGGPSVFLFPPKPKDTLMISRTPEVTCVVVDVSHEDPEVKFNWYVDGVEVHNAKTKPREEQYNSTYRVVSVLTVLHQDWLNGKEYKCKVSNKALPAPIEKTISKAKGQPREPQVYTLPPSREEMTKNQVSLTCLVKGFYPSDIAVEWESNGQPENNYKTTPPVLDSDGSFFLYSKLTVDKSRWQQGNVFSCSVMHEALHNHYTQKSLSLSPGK
light: QAVVTQESALTTSPGETVTLTCRSSTGAVTTSNYANWVQEKPDHLFTGLIGGTNNRAPGVPARFSGSLIGDKAALTITGAQTEDEAIYFCALWYSNHWVFGGGTKLTVLGQPKAAPSVTLFPPDIQMTQSPSSLSASVGDRVTITCRASQVIRRSLAWYQQKPGKAPKLLIYAASNLASGVPSRFSGSGSGTDFTLTISSLQPEDFATYYCQQSNTSPLTFGQGTKVEIKRTVAAPSVFIFPPSDEQLKSGTASVVCLLNNFYPREAKVQWKVDNALQSGNSQESVTEQDSKDSTYSLSSTLTLSKADYEKHKVYACEVTHQGLSSPVTKSFNRGEC
notes: DVD-Ig; N-term; AB073 (DLL4), C-term; AB071 (VEGF); HC linker long, LC linker long; also called DVD521H; DVD521L
B8: DVD533 (bispecific antibody, human IgG1, kappa, lambda, L234A L235A)
heavy: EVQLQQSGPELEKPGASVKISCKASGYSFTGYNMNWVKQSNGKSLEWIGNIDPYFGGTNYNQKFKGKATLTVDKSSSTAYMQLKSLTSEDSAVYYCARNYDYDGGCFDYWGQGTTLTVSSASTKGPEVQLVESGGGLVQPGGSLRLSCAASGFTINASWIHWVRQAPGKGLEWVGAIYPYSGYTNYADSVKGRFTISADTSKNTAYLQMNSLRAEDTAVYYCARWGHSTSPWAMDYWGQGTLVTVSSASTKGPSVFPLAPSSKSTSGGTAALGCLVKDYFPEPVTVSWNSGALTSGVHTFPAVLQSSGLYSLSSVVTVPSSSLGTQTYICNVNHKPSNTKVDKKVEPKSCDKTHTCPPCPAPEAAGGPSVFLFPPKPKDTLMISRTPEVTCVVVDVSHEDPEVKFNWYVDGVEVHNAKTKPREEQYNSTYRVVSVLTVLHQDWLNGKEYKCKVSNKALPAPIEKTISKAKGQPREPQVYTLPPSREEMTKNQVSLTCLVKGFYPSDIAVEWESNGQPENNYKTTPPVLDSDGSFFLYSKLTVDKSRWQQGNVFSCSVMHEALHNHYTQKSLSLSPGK
light: B7 light
notes: DVD-Ig; N-term; AB073 (DLL4), C-term; AB071 (VEGF); HC linker short, LC linker long; also called DVD533H; DVD533L
B9: DVD451 (bispecific antibody, human IgG1, kappa, L234A L235A)
heavy: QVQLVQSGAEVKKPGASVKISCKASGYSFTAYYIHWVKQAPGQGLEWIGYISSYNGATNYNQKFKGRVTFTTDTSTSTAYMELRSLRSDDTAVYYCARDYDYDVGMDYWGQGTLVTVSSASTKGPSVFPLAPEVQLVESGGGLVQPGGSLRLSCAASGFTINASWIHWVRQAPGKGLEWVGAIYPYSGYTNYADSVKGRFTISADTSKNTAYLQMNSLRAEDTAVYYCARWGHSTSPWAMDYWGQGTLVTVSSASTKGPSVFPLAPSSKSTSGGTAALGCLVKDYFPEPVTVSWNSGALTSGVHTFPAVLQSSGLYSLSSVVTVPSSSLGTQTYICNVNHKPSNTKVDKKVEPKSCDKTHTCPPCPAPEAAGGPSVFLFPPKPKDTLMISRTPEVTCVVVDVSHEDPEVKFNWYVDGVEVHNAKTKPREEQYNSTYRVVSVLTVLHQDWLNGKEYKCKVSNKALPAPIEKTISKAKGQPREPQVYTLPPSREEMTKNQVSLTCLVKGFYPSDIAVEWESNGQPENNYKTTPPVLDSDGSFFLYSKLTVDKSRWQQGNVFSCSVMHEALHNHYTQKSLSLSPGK
light: DIVMTQSPDSLAVSLGERATISCRASESVDNYGISFMKWFQQKPGQPPKLLIYAASNQGSGVPDRFSGSGSGTDFTLTISSLQAEDVAVYYCQQSKEVPWTFGGGTKVEIKRTVAAPSVFIFPPDIQMTQSPSSLSASVGDRVTITCRASQVIRRSLAWYQQKPGKAPKLLIYAASNLASGVPSRFSGSGSGTDFTLTISSLQPEDFATYYCQQSNTSPLTFGQGTKVEIKRTVAAPSVFIFPPSDEQLKSGTASVVCLLNNFYPREAKVQWKVDNALQSGNSQESVTEQDSKDSTYSLSSTLTLSKADYEKHKVYACEVTHQGLSSPVTKSFNRGEC
notes: DVD-Ig; N-term; AB069 (DLL4), C-term; AB071 (VEGF); HC linker long, LC linker long; also called DVD451H; DVD451L
B10: DVD463 (bispecific antibody, human IgG1, kappa)
heavy: not shown
light: B9 light
notes: DVD-Ig; N-term; AB069 (DLL4), C-term; AB071 (VEGF); HC linker short, LC linker long; also called DVD463H; DVD463L
B11: DVD467 (bispecific antibody, human IgG1, kappa)
heavy: not shown
light: DIQMTQSPSSLSASVGDRVTITCRASQDVSTAVAWYQQKPGKAPKLLIYSASFLYSGVPSRFSGSGSGTDFTLTISSLQPEDFATTYYCQQSYTGTVTFGQGTKVEIKRTVAAPDIQMTQSPSSLSASVGDRVTITCRASQVIRRSLAWYQQKPGKAPKLLIYAASNLASGVPSRFSGSGSGTDFTLTISSLQPEDFATYYCQQSNTSPLTFGQGTKVEIKRTVAAPSVFIFPPSDEQLKSGTASVVCLLNNFYPREAKVQWKVDNALQSGNSQESVTEQDSKDSTYSLSSTLTLSKADYEKHKVYACEVTHQGLSSPVTKSFNRGEC
notes: DVD-Ig; N-term; AB015 (DLL4), C-term; AB071 (VEGF); HC linker short, LC linker short; also called DVD467H; DVD467L
B12: DVD479 (bispecific antibody, human IgG1, kappa)
heavy: not shown
light: B11 light
notes: DVD-Ig; N-term; AB015 (DLL4), C-term; AB071 (VEGF); HC linker long, LC linker short; also called DVD479H; DVD479L
B13: DVD500 (bispecific antibody, human IgG1, kappa)
heavy: not shown
light: DIQMTQSPSSLSASVGDRVTITCSASQDISNYLNWYQQKPGKAPKVLIYFTSSLHSGVPSRFSGSGSGTDFTLTISSLQPEDFATYYCQQYSTVPWTFGQGTKVEIKRTVAAPDIQMTQSSSYLSVSLGGRVTITCKASDHINNWLAWYQQKPGNAPRLLISGATSLETGVPSRFSGSGSGKDYTLSITSLQTEDVATYYCQQYWSIPLTFGAGTKLELKRTVAAPSVFIFPPSDEQLKSGTASVVCLLNNFYPREAKVQWKVDNALQSGNSQESVTEQDSKDSTYSLSSTLTLSKADYEKHKVYACEVTHQGLSSPVTKSFNRGEC
notes: DVD-Ig; N-term; AB014 (VEGF), C-term; AB072 (DLL4); HC linker long, LC linker short; also called DVD500H; DVD500L
B14: DVD473 (bispecific antibody, human IgG1, kappa)
heavy: not shown
light: DIQMTQSPSSLSASVGDRVTITCRASQDVSTAVAWYQQKPGKAPKLLIYSASFLYSGVPSRFSGSGSGTDFTLTISSLQPEDFATTYYCQQSYTGTVTFGQGTKVEIKRTVAAPSVFIFPPDIQMTQSPSSLSASVGDRVTITCRASQVIRRSLAWYQQKPGKAPKLLIYAASNLASGVPSRFSGSGSGTDFTLTISSLQPEDFATYYCQQSNTSPLTFGQGTKVEIKRTVAAPSVFIFPPSDEQLKSGTASVVCLLNNFYPREAKVQWKVDNALQSGNSQESVTEQDSKDSTYSLSSTLTLSKADYEKHKVYACEVTHQGLSSPVTKSFNRGEC
notes: DVD-Ig; N-term; AB015 (DLL4), C-term; AB071 (VEGF); HC linker long, LC linker long; also called DVD473H; DVD473L
B15: DVD485 (bispecific antibody, human IgG1, kappa)
heavy: not shown
light: B14 light
notes: DVD-Ig; N-term; AB015 (DLL4), C-term; AB071 (VEGF); HC linker short, LC linker long; also called DVD485H; DVD485L

Biological target: T1, VEGF (UniProt P15692-4 27-191)
T1 construct: Bought reagent; also called vascular endothelial growth factor
Experiment: BIACORE SPR

T1 sequence (P15692 other isoform, or with tags, fused parts or gaps limits assumed): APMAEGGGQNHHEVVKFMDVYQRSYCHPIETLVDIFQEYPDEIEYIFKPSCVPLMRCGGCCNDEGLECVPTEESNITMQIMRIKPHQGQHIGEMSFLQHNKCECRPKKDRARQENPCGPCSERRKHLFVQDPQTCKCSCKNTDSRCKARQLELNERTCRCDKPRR

Row | Binder | Kd [nM] | koff [s⁻¹] | kon [M⁻¹ s⁻¹]
1 | B1 | 0.272 | 1.8 | 6.64e+09
2 | B2 | 0.307 | 5.43e-05 | 177000
3 | B3 | 0.566 | 0.0176 | 3.11e+07
4 | B4 | 0.281 | 0.000171 | 606000
5 | B5 | 1.45 | 0.000585 | 405000
6 | B6 | 0.842 | 0.000446 | 529000
7 | B7 | 0.882 | 0.000588 | 666000
8 | B8 | 0.825 | 0.000501 | 608000
9 | B9 | 0.0115 | 1.06e-06 | 92200
10 | B10 | 0.771 | 0.000479 | 621000
11 | B11 | 1.33 | 0.000236 | 177000
12 | B12 | 0.86 | 0.000257 | 299000
13 | B13 | 0.504 | 0.000248 | 492000
14 | B14 | 1.27 | 0.000265 | 209000
15 | B15 | 0.372 |  | 
